These results are taken from US20260209301A1, “Galanin-2 Receptor Agonists” (LIFEARC, priority 2022, published 2026).

Experiment [1] deals with T1, GalR1 (Homo sapiens, UniProt P47211).
T1 sequence (P47211 1-349): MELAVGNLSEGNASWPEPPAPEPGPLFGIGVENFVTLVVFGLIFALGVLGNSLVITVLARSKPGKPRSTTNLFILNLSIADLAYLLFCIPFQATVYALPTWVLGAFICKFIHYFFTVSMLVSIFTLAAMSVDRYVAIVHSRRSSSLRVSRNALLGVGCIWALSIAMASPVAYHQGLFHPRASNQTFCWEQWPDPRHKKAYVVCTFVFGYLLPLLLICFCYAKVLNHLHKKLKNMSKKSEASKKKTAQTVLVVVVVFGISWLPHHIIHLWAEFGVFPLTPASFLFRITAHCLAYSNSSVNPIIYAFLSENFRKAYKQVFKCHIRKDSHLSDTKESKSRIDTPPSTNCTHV
Description: cAMP HTRF assay, CHO GalR1 cells. The class given is cell-based. Set-up: expressed in transfected cells; host or cells: CHO (Flp-In, pcDNA5/FRT). The settings on record: for Emax: read-out: GalR1 cAMP IA (%); for GalR1 activity (cAMP assay), linker variants: Table 7, highest concentration tested 10 μM. As for the experimental part: The CAMP dynamic 2 kit (Cisbio International) was used as a competitive immunoassay to measure Homogenous Time-Resolved Fluorescence (HTRF). […] Addition of detection reagent involved adding 5 μl d2 conjugated CAMP followed by 5 μl anti-CAMP cryptate conjugate. The two reagents were not pre-mixed; these were both prepared in cell lysis buffer and incubated at room temperature in the dark for one hour.
A general note: TR-FRET usually uses a lanthanide donor and a delayed reading to cut background.

The target in experiment [2] is T1, GalR1. Description: β-arrestin recruitment, PathHunter CHO-K1 GALR1 cells. The class given is cell-based. The settings on record: for Emax: CHO-K1, 1.5 h, read-out: GalR1 Beta Arrestin IA (%). As for the experimental part: (§1) Ligands were prepared at half log dilutions using cell plating reagent 2. 5 μl of each ligand was added to cells and plates incubated at 37° C. for 90 minutes. DiscoverX PathHunter detection kit (DiscoverX, USA) was added to cells as described my manufacturer's guidelines and plates incubated for 60 minutes at room temperature in the dark. Chemiluminescent signal was measured using the PHERAstar FS (BMG, Germany).
A general note: Activated receptors often draw arrestin, which recruitment assays turn into a signal.

Experiment [3] deals with T2, GALR2 (Homo sapiens, UniProt O43603).
T2 sequence (O43603 1-387): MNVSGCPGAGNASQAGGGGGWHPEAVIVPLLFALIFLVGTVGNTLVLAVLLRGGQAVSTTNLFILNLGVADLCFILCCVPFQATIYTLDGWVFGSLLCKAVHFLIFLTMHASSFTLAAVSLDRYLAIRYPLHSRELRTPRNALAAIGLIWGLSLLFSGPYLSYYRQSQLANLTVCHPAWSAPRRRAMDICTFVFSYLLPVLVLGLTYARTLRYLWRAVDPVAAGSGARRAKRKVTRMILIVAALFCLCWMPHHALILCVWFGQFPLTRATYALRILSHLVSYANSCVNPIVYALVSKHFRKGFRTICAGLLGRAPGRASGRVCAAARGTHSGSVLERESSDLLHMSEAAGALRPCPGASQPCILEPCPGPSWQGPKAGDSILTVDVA
Description: β-arrestin recruitment, PathHunter CHO-K1 GALR2 cells. The class given is cell-based. The settings on record: for GalR2 Beta Arrestin, mean pEC50: Table 2, mean +/− standard deviation, n ≥ 3. As for the experimental part: as §1

Experiment [4] has as its target T2, GALR2. The experiment can be described thus: Calcium assay, CHO GalR2 cells (FLIPR). The settings on record: for GalR2 activity (calcium assay), linker variants: Table 7; for GalR2 activity (calcium assay), linker variants / GalR2 Calcium, mean pEC50 / GalR2 activity (calcium assay), warhead length: mean +/− standard deviation; for GalR2 activity (calcium assay), linker variants / GalR2 activity (calcium assay), warhead length: highest concentration tested 10 μM; for GalR2 Calcium, mean pEC50: Table 2, n ≥ 3; for GalR2 activity (calcium assay), warhead length: Table 6.
Description: CHO GalR2 cells were plated at 10,000 cells per well in black clear bottom plates (corning, USA) and incubated overnight at 37° C. with 5% CO2. […] Ligands were prepared at a 5× concentration and added to cells using the FLIPR (Molecular Devices, USA). Baseline was typically 20 seconds before ligand addition. […] For analysis, fluorescence was normalised to pre-addition baseline and peak fluorescence used for all quantification.
In brief, a panel of functional cell-based microtiter-plate assays were developed using recombinant GalR1 and GalR2 receptors stably expressed in CHO cells. […] Nominally this equated to 10 serial (~3fold) dilutions with highest concentrations of 10-1 μM as appropriate.
In addition to generating both potency and efficacy estimates, the latter being expressed relative to native galanin, both G-protein and non-G-Protein signalling pathways were measured.

Another experiment addresses T3, mouse GalR2 (Mus musculus, UniProt O88854).
T3 sequence (O88854 1-371): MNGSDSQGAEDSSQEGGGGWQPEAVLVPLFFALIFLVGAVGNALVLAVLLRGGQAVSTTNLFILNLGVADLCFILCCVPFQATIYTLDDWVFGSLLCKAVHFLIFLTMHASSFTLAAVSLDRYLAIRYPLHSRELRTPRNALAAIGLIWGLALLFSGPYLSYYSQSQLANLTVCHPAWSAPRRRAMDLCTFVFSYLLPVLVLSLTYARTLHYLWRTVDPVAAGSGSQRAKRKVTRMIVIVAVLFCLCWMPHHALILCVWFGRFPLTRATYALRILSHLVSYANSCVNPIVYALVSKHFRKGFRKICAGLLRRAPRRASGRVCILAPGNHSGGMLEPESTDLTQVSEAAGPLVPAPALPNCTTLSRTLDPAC
Description: Calcium assay at orthologue receptor. It is filed as cell-based. An excerpt: (§2) These species were chosen as they represent potential downstream in vivo models to be used. Within native galanin amino acid residues 1-15 are conserved across species, we would therefore expect the Gal FC fusions comprising amino acids 2 to 13 to retain GalR2 activity in these species. Calcium imaging was used to define receptor activity.

In another experiment the target is cynomolgus GalR2. The experiment can be described thus: Calcium assay at orthologue receptor. The settings on record: Table 8; Calcium assays; mean +/− standard deviation. The class given is cell-based, Macaca fascicularis.
From the text: as §2

Where [5] appears, read: Table 3, mean +/− standard deviation, n ≥ 3, highest concentration 1 μM (galnon 100 μM).
The mark [6] stands for this setting: maximum response at highest concentration tested (1 μM, except galnon at 100 μM), relative to galanin.

Non-standard residues stand in square brackets, D forms with d. Residues, ends and D or L forms follow the SMILES beside them. No end group written: not given here. *: point of attachment. Fmoc = O=C(OCC1c2ccccc2-c2ccccc21)*; Cha = N[C@@H](CC1CCCCC1)C(=O)O; AMC = Cc1cc(=O)oc2cc(N*)ccc12

In the case of `CC[C@H](C)[C@H](NC(=O)[C@H](C)NC(=O)[C@H](Cc1c[nH]cn1)NC(=O)[C@@H]1CCCN1C(=O)CNC(=O)[C@H](CC(C)C)NC(=O)[C@H](CC(C)C)NC(=O)[C@H](Cc1ccc(O)cc1)NC(=O)CNC(=O)[C@H](C)NC(=O)[C@H](CO)NC(=O)[C@H](CC(N)=O)NC(=O)[C@H](CC(C)C)NC(=O)[C@@H](NC(=O)[C@@H](N)Cc1c[nH]c2ccccc12)[C@@H](C)O)C(=O)N[C@@H](CC(=O)O)C(=O)N[C@@H](CC(N)=O)C(=O)N[C@@H](Cc1c[nH]cn1)C(=O)N[C@@H](CCCNC(=N)N)C(=O)N[C@@H](CO)C(=O)N[C@@H](Cc1ccccc1)C(=O)N[C@@H](Cc1c[nH]cn1)C(=O)N[C@@H](CC(=O)O)C(=O)N[C@@H](CCCCN)C(=O)N[C@@H](Cc1ccc(O)cc1)C(=O)NCC(=O)N[C@@H](CC(C)C)C(=O)N[C@@H](C)C(N)=O` [Galanin 2-29 (rat), reference compound], the Emax was determined as 90.8% on GalR1 [1] and 67.2% on GalR1 [2].
Taken in the same sequence, the figures for “RGRGNWTLNSAGYLLGPVLPPPALALA-NH2 (C-terminus assumed) [M1145, reference compound]” were 86.7% and 24.5%.
In the case of “Gal2-13FC (ALA-12): Gal2-13FC with alanine at position 12; SEQ ID NO: 61”, in the experiment with GALR2 [3] (positions 12 and 13 study, FIG. 2 / Table 4), the “activation of GalR2 in vitro (in words)” value was “failed to activate GalR2”.
For “Gal2-13FC GGS: Gal2-13 FC fusion with GGS linker; SEQ ID NO: 33”, in the experiment with GalR1 [1] (mean +/− standard deviation), the “GalR1 activity (cAMP assay), linker variants” value (shortened to “GalR1 activity (cAMP assay)”) is given as 5.3 +/− 0.1. Further, the “GalR2 activity (calcium assay), linker variants” value with GALR2 [4] is 6.4 +/− 0.1.
On the same counts, the results for “Gal2-13FC NL: Gal2-13 FC fusion with no linker; SEQ ID NO: 36” are 5.9 +/− 0.2 and 7.3 +/− 0.1.
With “Gal2-24FC: galanin 2-24, AEAAAKEAAAKA linker, human IgG1 FC; SEQ ID NO: 27”, in the experiment with GALR2 [4], the “GalR2 Calcium, mean pEC50” value was 6.9 +/− 0.3 and the “GalR2 activity (calcium assay), warhead length” value is recorded as 6.9 +/− 0.3. For the same compound, in the experiment with GALR2 [3], the “GalR2 Beta Arrestin, mean pEC50” value is listed as 7.6 +/− 0.0.
Regarding “Gal2-18FC: galanin 2-18, AEAAAKEAAAKA linker, human IgG1 FC; SEQ ID NO: 26”, in the experiment with GALR2 [4], the “GalR2 Calcium, mean pEC50” value is 6.7 +/− 0.1 and the “GalR2 activity (calcium assay), warhead length” value is given as 6.7 +/− 0.1. Moreover, the “GalR2 Beta Arrestin, mean pEC50” value with GALR2 [3] was 7.3 +/− 0.1.
Turning to “Gal2-13FC GGS2: Gal2-13 FC fusion with GGSGGS linker; SEQ ID NO: 34”, the “GalR1 activity (cAMP assay)” value with GalR1 [1] (mean +/− standard deviation) is recorded as 5.5 +/− 0.2. In addition, in the experiment with GALR2 [4], the “GalR2 activity (calcium assay), linker variants” value is recorded as 6.4 +/− 0.0.
What is called EC50 is the concentration giving half of the maximal effect. As for `CC(C)C[C@H](NC(=O)CNC(=O)[C@H](CC(N)=O)NC(=O)[C@H](CCCCN)NC(=O)[C@H](CC(=O)O)NC(=O)[C@H](CO)NC(=O)[C@H](Cc1ccccc1)NC(=O)[C@H](CO)NC(=O)[C@H](CCCNC(=N)N)NC(=O)[C@H](Cc1c[nH]cn1)NC(=O)[C@H](CC(N)=O)NC(=O)CNC(=O)[C@@H](NC(=O)[C@H](C)NC(=O)[C@H](Cc1c[nH]cn1)NC(=O)[C@@H]1CCCN1C(=O)CNC(=O)[C@H](CC(C)C)NC(=O)[C@H](CC(C)C)NC(=O)[C@H](Cc1ccc(O)cc1)NC(=O)CNC(=O)[C@H](C)NC(=O)[C@H](CO)NC(=O)[C@H](CC(N)=O)NC(=O)[C@H](CC(C)C)NC(=O)[C@@H](NC(=O)[C@H](Cc1c[nH]c2ccccc12)NC(=O)CN)[C@@H](C)O)C(C)C)C(=O)N[C@H](C(=O)N[C@@H](CO)C(=O)O)[C@@H](C)O` [Galanin 1-30 (human), reference compound], the EC50 at mouse GalR2 was 0.001 µM. The “Cynomolgus GalR2 activity” value on cynomolgus GalR2 was 9.6 +/− 0.2.
“Gal2-13FC PA4: Gal2-13 FC fusion with PAPAPAPA linker; SEQ ID NO: 37”: in the experiment with GalR1 [1] (mean +/− standard deviation), the “GalR1 activity (cAMP assay)” value is recorded as 6.1 +/− 0.0. The “GalR2 activity (calcium assay), linker variants” value in the experiment with GALR2 [4] is recorded as 6.8 +/− 0.1.
“Gal1-30FC: galanin 1-30 fused to human IgG1 FC, mature chimeric protein SEQ ID NO: 23”: in the experiment with GalR1 [1] (setting [5]), the “GalR1 cAMP pEC50” value is reported as 8.4 +/− 0.2. Also, the “GalR1 cAMP IA (%)” value with GalR1 [1] (setting [6]) is 93.4 +/− 11.6%. Moreover, in the experiment with GALR2 [4], the “GalR2 Calcium, mean pEC50” value is on record as 6.4 +/− 0.3. Further, in the experiment with GalR1 [2] (setting [5]), the “GalR1 Beta Arrestin pEC50” value was 5.72 +/− 0.40. In addition, the “GalR1 Beta Arrestin IA (%)” value with GalR1 [2] (setting [6]) is recorded as 88.1 +/− 7.1%. Further, the “GalR2 Beta Arrestin, mean pEC50” value with GALR2 [3] is reported as 5.7 +/− 0.4.
As for “GWTLNSAGYLLGPQPPGFSPFR-NH2 (C-terminus assumed) [M617, reference compound]”, the Emax was 90.1% at GalR1 [1] and 99% on GalR1 [2].
`Cc1cc(=O)oc2cc(NC(=O)[C@H](CCCCN)NC(=O)[C@H](CC3CCCCC3)NC(=O)OCC3c4ccccc4-c4ccccc43)ccc12` [Galnon, reference compound] (Fmoc-[Cha]-Lys-{AMC}): the EC50 on GalR1 [1] is over 1 µM; on GALR2 [4], 20 µM; at GalR1 [2] it was over 1 µM; at GALR2 [3] it was 158 µM. Further, the Emax at GalR1 [1] was 2.9%; at GalR1 [2] it was 40.1%.
